Data: paper PMC4364678, “Biosynthesis of the Diterpenoid Lycosantalonol via Nerylneryl Diphosphate in Solanum lycopersicum” (PLoS ONE, 2015)

Key:
purified protein [1] = substrate: C=C(C)CCO[P@@](=O)(O)OP(=O)(O)O; test: purified protein; conditions: 5-80 μM 14C-IPP at 150 μM zzFPP; labelled compound
purified protein [2] = substrate: CC(C)=CCC/C(C)=C\CC/C(C)=C\COP(=O)(O)OP(=O)(O)O; test: purified protein; assay type: biochemical, Solanum lycopersicum; conditions: 10-80 μM zzFPP at 50 μM 14C-IPP

B1: CPT2 (Solanum lycopersicum) (protein)
chain: MSDRGLSKISCSLSLQTEKLRYDNDDNDDLELHEELIPKHIALIMDGNRRWAKAKGLEVYEGHKLIIPKLKEICDISSKLGIQVITAFAFSTENWKRSKEEVDFLMQLFEEFFNEFLRFGVRVSVIGCKSNLPMTLQKCIALTEETTKGNKGLHLVIALNYGGYYDILQATKSIVNKAMNGLLDVEDINKNLFEQELESKCPNPDLLIRTGGEQRVSNFLLWQLAYTEFYFTNTLFPDFGEKDLKKAILNFQQRHRRFGGHTY
notes: N-terminal putative transit peptide (51 residues, 153 nt) deleted; vector pEXP5-CT/TOPO; E. coli BL21 (DE3)
- Km (purified protein [1]): 3.8 ± 0.3 µM
- kcat (purified protein [1]): 0.0026 s⁻¹
- kcat/Km (purified protein [1]): 680 M⁻¹ s⁻¹
- Km (purified protein [2]): 22.9 ± 1.1 µM
- kcat (purified protein [2]): 0.0026 ± 0.0001 s⁻¹
- kcat/Km (purified protein [2]): 110 ± 10 M⁻¹ s⁻¹
